The labels stand for the following.
B1: Nb8 (VHH)
VHH: AVQLQASGGGFVQPGGSLRLSCAASGILGTNTWMGWFRQAPGKEREFVSAINYWTEPEYYADSVKGRFTISRDNSKNTVYLQMNSLRAEDTATYYCAQQNMDLNFDVFAWEYWGQGTQVTVSS
B2: Nb24 (VHH)
VHH: AVQLQASGGGFVQPGGSLRLSCAASGHWPWTGFMGWFRQAPGKEREFVSAIVEYGWPTYYADSVKGRFTISRDNSKNTVYLQMNSLRAEDTATYYCAIAGLIAPEFEQMPVYWGQGTQVTVSS
B3: Nb26 (VHH)
VHH: AVQLQASGGGFVQPGGSLRLSCAASGNYYPFTFMGWFRQAPGKEREFVSAIVTDYNKNYYADSVKGRFTISRDNSKNTVYLQMNSLRAEDTATYYCAYQDHSLIVESSGHMYWGQGTQVTVSS

These results are taken from article PMC10600506, “A potent and broad‐spectrum neutralizing nanobody for SARS‐CoV‐2 viruses, including all major Omicron strains” (MedComm, 2023).

This assay addresses SARS-CoV-2 Omicron BA.1 Spike receptor-binding domain (SARS-CoV-2 Omicron BA.1, strain, biotin on the Avi tag (for phage screening and BLI); not biotinylated for crystallisation).
Turning to B1, the binding result was “binds”.

Regarding B2, the binding result is on record as “binds”.

For the molecule B3, the binding result is “binds”.
